Among the data in publication PMC12579213 (2025) are koff and Kd values, retold here.

Common to all, as to assay: BLI
Experiment [1] deals with T1, GST-tagged Rac1 (Q61L) (UniProt P63000 1-192, Q61L).
Experiment [2] has as its target T2, GST-tagged Rac1F37W (Q61L) (UniProt P63000 1-192, F37W | Q61L).
In experiment [3] the target is T3, GST-tagged RhoA (Q63L) (UniProt P61586 1-193, Q63L).
The target of experiment [4] is T1, GST-tagged Rac1 (Q61L). The source holds these as a separate data set.
The target in experiment [5] is T2, GST-tagged Rac1F37W (Q61L). The source holds these as a separate data set.
The target in experiment [6] is T3, GST-tagged RhoA (Q63L). This is another data set of the same source.

The term koff denotes a measure of how fast the partners let go of each other. Usually Kd stands for a measure of binding affinity in units of concentration.

B1: 6xHis-tagged RBD_(ROCK1) (domain or fragment)
chain: KDHTVSRLEEANSMLTKDIEILRRENEELTEKMKKAEEEYKLEKEEEISNLKAAFEKNINTERTLKTQAVNKLAEIMNRKDF
Take B1: the koff in experiment [1] was 0.00156 s⁻¹; in experiment [2], 0.00474 s⁻¹; in experiment [3], 0.000699 s⁻¹. The figures for the Kd in experiment [4], in experiment [5] and in experiment [6] were 0.056 µM, 0.179 µM and 0.031 µM, respectively.
